The supplement of paper PMC9732359
± gives the uncertainty stated by the source.

test: protein stability index of a GFP-peptide fusion (yeast GPS) (PSI 1-4); higher = more stable; sorted into four equal gates, so the index is relative within each strain; settings: doa10∆
How it was run: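 The protein stability index combines read frequencies across sorting gates, each weighted by its gate number and then summed. To obtain those frequencies, a pooled yeast library of GFP fusions to tiled 17-residue yeast protein peptides, on a plasmid also expressing Cherry, was grown to mid-log phase in leucine-free medium. The cells were sorted into four equal gates by GFP/Cherry ratio before plasmid amplification by PCR and Illumina sequencing.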

Row | Sequence | protein stability index
1 | NYDCKVISIVGGHSLEE [PRP28] | 2.93 ± 0.055
2 | NYDTCGGESAYFFQLQI [RPC11] | 2.72 ± 0.2
3 | NYFVDTDLKKIIKANQL [RET1] | 2.88 ± 0.058
4 | NYIPGNPLVTPASIVPE [COB] | 1.81 ± 0.068
5 | NYIYAGYENGMLAQWDL [RPN14] | 2.92 ± 0.13
6 | NYKGLPKKYKENNTDSA [SMC1] | 3.32 ± 0.07
7 | NYNDLIVNYEDLATTQA [BRN1] | 2.98 ± 0.07
8 | PAGQATQKRTHVLKKNP [RPL4A] | 2.95 ± 0.22
9 | PAITIEKLKQFSWISVV [SIR3] | 1.16 ± 0.05
10 | PAKVEDVQKSSDSSSED [YLR335W/NUP2] | 2.84 ± 0.1
11 | PAVKQWDLLPEPIRFLP [SWI1] | 2.28 ± 0.058
12 | PDAKIQVRRDIPSAAFN [YMR129W/POM152] | 2.17 ± 0.061
13 | PDELIKAGVEAISQSLR [PRE5] | 2.83 ± 0.14
14 | PEESKGSFKYITARSAF [SWP82] | 2.85 ± 0.068
15 | PEESKPINLQNGEEDEV [YLR335W/NUP2] | 2.9 ± 0.075
16 | PEGTLSGGSRNTSESLL [SMC2] | 3.4 ± 0.2
17 | PEIPLVVSTDLESIQKT [RPL4A] | 2.96 ± 0.071
18 | PEKKEMIQEVIVEEDLE [FAS2] | 3.14 ± 0.077
19 | PEKTSTELVDGRENFVY [SIR3] | 3.08 ± 0.099
20 | PEMIKRSLLLSRVRADD [RRP43] | 2.87 ± 0.2
21 | PENTAMFNPLHESYCLP [YMR129W/POM152] | 2.44 ± 0.043
22 | PESQGQHEQQKQQEQLE [YMR153W/NUP53] | 3.4 ± 0.083
23 | PEYEKAMQYVCGDSIIC [SMC1] | 1.7 ± 0.1
24 | PFDNSTEEKCKNFIESE [YJL039C/NUP192] | 3.27 ± 0.14
25 | PFETFDHASIRRGYQVY [CYT1] | 2.68 ± 0.048

Row | Sequence | protein stability index
26 | PFIKSESKPFSSDALSK [SIR4] | 3.17 ± 0.07
27 | PFQLDVADMLTPEYAAE [UBP6] | 2.95 ± 0.17
28 | PFREFLQVLIDQLDSEA [ECM29] | 3.38 ± 0.095
29 | PGFQLPNRITLTDHRKE [SRB8] | 2.79 ± 0.079
30 | PGKGILTTAREHHSSVK [FAS2] | 3.07 ± 0.087
31 | PHGFPSRMTVGKMIELI [RET1] | 2.54 ± 0.11
32 | PHGISVFLSNLVETCLN [BRR2] | 1.39 ± 0.043
33 | PHLPFSKSENPVLSTIA [SWI3] | 1.95 ± 0.049
34 | PIAAPKKPRKPRQTKKA [PGD1] | 2.64 ± 0.11
35 | PIAQPATDVEARAVQDN [RPL13A] | 3.02 ± 0.15
36 | PILVTLVSDSEIIDLNL [POP6] | 2.29 ± 0.058
37 | PIMQTQMPLNSNGGNNM [SNF2] | 3 ± 0.059
38 | PINLKFLQGESPFSITF [YMR129W/POM152] | 2.53 ± 0.079
39 | PKELVPSHEKLKESYSQ [CDC53] | 3.13 ± 0.077
40 | PKLLDALNKISKYYPGV [SNU114] | 3.08 ± 0.076
41 | PKNLLKKFIEISDVKIQ [PRP8] | 1.76 ± 0.064
42 | PKNSSSPVQIAFNRFMA [SSN8] | 1.51 ± 0.053
43 | PKSTAPIFSFGKQEENG [YOR098C/NUP1] | 2.24 ± 0.053
44 | PLAKKQTVRLIKDLQRA [SIR2] | 2.77 ± 0.08
45 | PLGILHIPICVTFSFFN [RRP45] | 1.29 ± 0.05
46 | PLLDIVLKADRSWNEPS [YML103C/NUP188] | 2.02 ± 0.15
47 | PLLRKVVDRESDIPKTT [PRE4] | 2.54 ± 0.11
48 | PLRDNGLLDESPNRLRV [YML031W/NDC1] | 3.2 ± 0.14
49 | PLVGKPKTELTKGDSTP [YAR002W/NUP60] | 2.59 ± 0.061
50 | PLVIRRYLPDGSFEDWS [RPO26] | 3.43 ± 0.18

Row | Sequence | protein stability index
51 | PLVYRHELITNIGETAG [RPB9] | 2.78 ± 0.046
52 | PMEVMGLMLGEFVDDYT [RPN11] | 3.29 ± 0.12
53 | PNERKAKQAKIRAGEFD [SNF2] | 3.62 ± 0.12
54 | PNETSEIAQANSRNAIR [RPL19A] | 2.7 ± 0.15
55 | PNFDWDLCSSVLSQFER [ROX3] | 3.12 ± 0.079
56 | PNFFLTLISENWWHSEF [BRR2] | 2.8 ± 0.22
57 | PNFNVEIMQQKFPATNV [ECM29] | 2.25 ± 0.26
58 | PNHNSPVVINLDAKNKV [RPO31] | 2.92 ± 0.16
59 | PNIHQNLLPKKSAKTAK [HTA2] | 2.88 ± 0.19
60 | PNINTWQQVTALAQQKL [GAL11] | 2.2 ± 0.058
61 | PNLNMKYRKRQLVTREA [FAS2] | 3.68 ± 0.15
62 | PNNASSHISASASPHLA [SNF2] | 2.53 ± 0.046
63 | PNNETSVLSSKPGSKPE [SIR3] | 3.12 ± 0.11
64 | PNRITLTDHRKETWLHE [SRB8] | 2.8 ± 0.082
65 | PNTTKTKLRAFVYNKVN [YGR119C/NUP57] | 2.47 ± 0.21
66 | PNVDLVTALEVLSLGRP [RGR1] | 1.95 ± 0.11
67 | PPEEFSNTIDELSTDII [SRB7] | 3.1 ± 0.057
68 | PPPPPPSNFEINAEEIV [PRP8] | 2.6 ± 0.038
69 | PPTDTNVEESVSKADIL [POP5] | 3.21 ± 0.12
70 | PQAVTITSIMDDLALPY [ITC1] | 2.85 ± 0.077
71 | PQDYVLERVKRIMEKSV [YML031W/NDC1] | 2.6 ± 0.059
72 | PQKSSSKGFVFNSVQKK [YAR002W/NUP60] | 1.65 ± 0.088
73 | PQMQCALQNLSQLPITP [YGL172W/NUP49] | 2.06 ± 0.087
74 | PQNEKPPAYALLGSCQT [RPC25] | 2.83 ± 0.26
75 | PQQQQQHLQFNGSSDAS [YDL088C/ASM4] | 2.41 ± 0.042

same assay, conditions: pdr5∆

Row | Sequence | protein stability index
76 | NYDCKVISIVGGHSLEE [PRP28] | 2.91 ± 0.059
77 | NYDTCGGESAYFFQLQI [RPC11] | 2.75 ± 0.15
78 | NYFVDTDLKKIIKANQL [RET1] | 2.85 ± 0.066
79 | NYIPGNPLVTPASIVPE [COB] | 2.36 ± 0.071
80 | NYIYAGYENGMLAQWDL [RPN14] | 3.07 ± 0.14
81 | NYKGLPKKYKENNTDSA [SMC1] | 3.31 ± 0.085
82 | NYNDLIVNYEDLATTQA [BRN1] | 3.1 ± 0.087
83 | PAGQATQKRTHVLKKNP [RPL4A] | 3.21 ± 0.21
84 | PAITIEKLKQFSWISVV [SIR3] | 1.45 ± 0.055
85 | PAKVEDVQKSSDSSSED [YLR335W/NUP2] | 2.41 ± 0.097
86 | PALIRPGRIDRKILFEN [RPT2] | 2.21 ± 0.16
87 | PAVKQWDLLPEPIRFLP [SWI1] | 2.27 ± 0.069
88 | PDAKIQVRRDIPSAAFN [YMR129W/POM152] | 1.89 ± 0.098
89 | PDELIKAGVEAISQSLR [PRE5] | 2.91 ± 0.15
90 | PEESKGSFKYITARSAF [SWP82] | 3.04 ± 0.076
91 | PEESKPINLQNGEEDEV [YLR335W/NUP2] | 2.92 ± 0.077
92 | PEGTLSGGSRNTSESLL [SMC2] | 3.29 ± 0.15
93 | PEIPLVVSTDLESIQKT [RPL4A] | 3.05 ± 0.086
94 | PEKKEMIQEVIVEEDLE [FAS2] | 3.31 ± 0.089
95 | PEKTSTELVDGRENFVY [SIR3] | 3.25 ± 0.15
96 | PEMIKRSLLLSRVRADD [RRP43] | 3.63 ± 0.17
97 | PENTAMFNPLHESYCLP [YMR129W/POM152] | 2.66 ± 0.042
98 | PESQGQHEQQKQQEQLE [YMR153W/NUP53] | 3.37 ± 0.066
99 | PEYEKAMQYVCGDSIIC [SMC1] | 2.27 ± 0.17

Row | Sequence | protein stability index
100 | PFDNSTEEKCKNFIESE [YJL039C/NUP192] | 3.39 ± 0.16
101 | PFETFDHASIRRGYQVY [CYT1] | 2.65 ± 0.044
102 | PFIKSESKPFSSDALSK [SIR4] | 3.15 ± 0.09
103 | PFQLDVADMLTPEYAAE [UBP6] | 2.65 ± 0.19
104 | PFREFLQVLIDQLDSEA [ECM29] | 2.6 ± 0.12
105 | PGFQLPNRITLTDHRKE [SRB8] | 2.98 ± 0.084
106 | PGKGILTTAREHHSSVK [FAS2] | 3.32 ± 0.076
107 | PHGFPSRMTVGKMIELI [RET1] | 2.56 ± 0.11
108 | PHGISVFLSNLVETCLN [BRR2] | 1.57 ± 0.035
109 | PHLPFSKSENPVLSTIA [SWI3] | 2.04 ± 0.048
110 | PIAAPKKPRKPRQTKKA [PGD1] | 3.18 ± 0.092
111 | PIAQPATDVEARAVQDN [RPL13A] | 3.17 ± 0.11
112 | PILVTLVSDSEIIDLNL [POP6] | 2.47 ± 0.046
113 | PIMQTQMPLNSNGGNNM [SNF2] | 2.92 ± 0.06
114 | PINLKFLQGESPFSITF [YMR129W/POM152] | 2.1 ± 0.063
115 | PKELVPSHEKLKESYSQ [CDC53] | 3.02 ± 0.067
116 | PKLLDALNKISKYYPGV [SNU114] | 2.37 ± 0.072
117 | PKNLLKKFIEISDVKIQ [PRP8] | 1.88 ± 0.067
118 | PKNSSSPVQIAFNRFMA [SSN8] | 1.74 ± 0.05
119 | PKSTAPIFSFGKQEENG [YOR098C/NUP1] | 2.75 ± 0.069
120 | PLAKKQTVRLIKDLQRA [SIR2] | 3.01 ± 0.07
121 | PLGILHIPICVTFSFFN [RRP45] | 1.26 ± 0.06
122 | PLLDIVLKADRSWNEPS [YML103C/NUP188] | 2.86 ± 0.26
123 | PLLRKVVDRESDIPKTT [PRE4] | 2.46 ± 0.091

Row | Sequence | protein stability index
124 | PLRDNGLLDESPNRLRV [YML031W/NDC1] | 3.03 ± 0.1
125 | PLVGKPKTELTKGDSTP [YAR002W/NUP60] | 2.9 ± 0.058
126 | PLVIRRYLPDGSFEDWS [RPO26] | 3.27 ± 0.18
127 | PLVYRHELITNIGETAG [RPB9] | 2.88 ± 0.035
128 | PMEVMGLMLGEFVDDYT [RPN11] | 3.28 ± 0.095
129 | PNERKAKQAKIRAGEFD [SNF2] | 3.66 ± 0.18
130 | PNETSEIAQANSRNAIR [RPL19A] | 2.92 ± 0.095
131 | PNFDWDLCSSVLSQFER [ROX3] | 2.8 ± 0.095
132 | PNFFLTLISENWWHSEF [BRR2] | 2.27 ± 0.11
133 | PNFNVEIMQQKFPATNV [ECM29] | 3 ± 0.2
134 | PNHNSPVVINLDAKNKV [RPO31] | 3.08 ± 0.19
135 | PNIHQNLLPKKSAKTAK [HTA2] | 3.09 ± 0.29
136 | PNINTWQQVTALAQQKL [GAL11] | 2.23 ± 0.064
137 | PNLNMKYRKRQLVTREA [FAS2] | 3.13 ± 0.11
138 | PNNASSHISASASPHLA [SNF2] | 2.66 ± 0.044
139 | PNNETSVLSSKPGSKPE [SIR3] | 3.04 ± 0.12
140 | PNRITLTDHRKETWLHE [SRB8] | 3.03 ± 0.086
141 | PNVDLVTALEVLSLGRP [RGR1] | 2.1 ± 0.063
142 | PPEEFSNTIDELSTDII [SRB7] | 3.16 ± 0.068
143 | PPPPPPSNFEINAEEIV [PRP8] | 3.04 ± 0.046
144 | PPTDTNVEESVSKADIL [POP5] | 3.18 ± 0.12
145 | PQAVTITSIMDDLALPY [ITC1] | 2.98 ± 0.062
146 | PQDYVLERVKRIMEKSV [YML031W/NDC1] | 2.66 ± 0.045
